In paper PMC8786865 (2022):

Biological target: SARS-CoV-2 spike protein receptor-binding domain (RBD) (SARS-CoV-2, UniProt P0DTC2 319-541)
Assay: SPR

B1: #41 (antibody, V domains shown)
VH: QVQLVQSGAEVKKPGASVKVSCKVSGYTSPATIHWVRQAPGKGLEWMGGISPYKGDTIYAQKFQGRVTMTEDTSTDTAYMELSSLKSEDTAVYYCAKDSYYYDSSGSGLGGGFDYWGQGTLVTVSS
VL: DIQMTQSPSSVSASVGDRVTITCRASRDISSYLAWYQQKPGKAPKLLIYGASTRASGVPSRFSGSGSGTDFTLTISSLQPEDFANYYCLQYSIYPWTFGGGTKVEIK
  Kd: 0.295 nM
